For the data set the following is noted: Bacillus amyloliquefaciens; pH 8; 22 °C; GdnHCl; Fluorescence; phosphate 20 mM; whole UniProt chain shown.

Several values for one entry are separate records, joined by “and”; a condition that tells them apart may be missing. Equal entries are not always repeated.

B1: Barstar wild type, P11540 (protein)
chain: MKKAVINGEQIRSISDLHQTLKKELALPEYYGENLDALWDCLTGWVEYPLVLEWRQFEQSKQLTENGAESVLQVFREAKAEGCDITIILS
B1: the denaturant m value is 2.5 kcal/mol/M and 1.45 kcal/mol/M and 2.2 kcal/mol/M; the unfolding free energy is 5.1 kcal/mol and 2.1 kcal/mol and 5.6 kcal/mol.

The record behind these values is FireProtDB (doi:10.1021/bi990285w).
